Patent US20190016785A1 (published 2019)

Key:
[1] = molecular target: HBsAg ayw (hepatitis B virus); assay: ELISA
[2] = molecular target: HBsAg adr; assay: ELISA

B1: HBC34 (antibody, V domains shown)
VH: ELQLVESGGGWVQPGGSQRLSCAASGRIFRSFYMSWVRQAPGKGLEWVATINQDGSEKLYVDSVKGRFTISRDNAKNSLFLQMNNLRVEDTAVYYCAAWSGNSGGMDVWGQGTTVSVSS
VL: SYELTQPPSVSVSPGQTVSIPCSGDKLGNKNVCWFQHKPGQSPVLVIYEVKYRPSGIPERFSGSNSGNTATLTISGTQAMDEAAYFCQTWDSTTVVFGGGTRLTVL
EC50 [1]: 10 ng/mL | EC50 [2]: 6 ng/mL
